Consider one substance from publication PMC8093215.

This assay deals with human DNMT1 BAH1 domain (residues 728-900), Y775A (human) (UniProt P26358). Kind of assay: ITC; 1 mM H4K20me peptide titrated over 0.1 mM hDNMT1 BAH1 or BAH2 domain; 25 mM Tris-HCl pH 7.5, 100 mM NaCl, 2 mM DTT; 5 °C; single-site binding mode. A general note: Isothermal titration calorimetry measures the heat released or taken up as one component is titrated into another.
human DNMT1 BAH1 domain (residues 728-900), Y775A (human), sequence (P26358 728-900 Y775A): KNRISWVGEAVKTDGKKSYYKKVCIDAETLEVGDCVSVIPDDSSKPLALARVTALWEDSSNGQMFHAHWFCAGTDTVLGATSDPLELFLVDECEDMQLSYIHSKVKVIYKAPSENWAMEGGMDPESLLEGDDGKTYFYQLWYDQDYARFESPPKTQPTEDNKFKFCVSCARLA

Consider “H4(14-25)K20me3 peptide (from UniProt P62805 15-26)”, for which the Kd is 361 µM and the stoichiometry N worked out at 1.

One may read the Kd as the constant that tells how readily two partners part at equilibrium. Read a low Kd as a tighter complex. The term stoichiometry N denotes a count of units in the complex or per binding partner.
